Test results: publication PMC11423142, “Clec7a Worsens Long‐Term Outcomes after Ischemic Stroke by Aggravating Microglia‐Mediated Synapse Elimination” (Advanced Science, 2024)

Target: T1, purified human Clec7a protein (R&D Systems Cat. 1859-DC-050) (human, UniProt Q9BXN2 66-247)
T1 construct: Clec7a, human, bought recombinant protein; source: bought: R&D Systems (Cat. 1859-DC-050)
T1 sequence (looked up): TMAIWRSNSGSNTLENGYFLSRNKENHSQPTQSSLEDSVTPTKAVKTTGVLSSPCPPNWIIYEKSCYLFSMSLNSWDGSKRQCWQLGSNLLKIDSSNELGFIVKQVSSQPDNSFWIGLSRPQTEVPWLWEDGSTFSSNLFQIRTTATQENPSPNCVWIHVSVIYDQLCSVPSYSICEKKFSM
Test: MST; Monolith NT.115, 20 °C, 20 mM HEPES pH 8.0, 150 mM NaCl; Clec7a constant at 50 nM, MD2 varied from 10 µM to 1.2 nM; n = 3
Conditions: both partners purified

B1: human MD2 protein (R&D Systems Cat. 1787-MD) (ligand, UniProt Q9Y6Y9 19-160, looked up)
chain: QKQYWVCNSSDASISYTYCDKMQYPISINVNPCIELKRSKGLLHIFYIPRRDLKQLYFNLYITVNTMNLPKRKEVICRGSDDDYSFCRALKGETVNTTISFSFKGIKFSKGKYKCVVEAISGSPEEMLFCLEFVILHQPNSN
notes: MD2 (lymphocyte antigen 96), human, bought recombinant protein; source: bought: R&D Systems (Cat. 1787-MD)
- Kd: 2960 nM
